The labels stand for the following.
B1: TPR t1 (parent)
chain: GACCAAUCUGCCCUCAGAGCUCGAGAACAUCUUCGGAUGCAGAGGAGGCAGGCUUCGGUGGCGCGAUAGCGCCAACGUCCUCAACCUCCAAUGCAUCCCACCACAUGAUGAUGCCUGAAGAGCCUUGGUUUUUUG

The values that follow come from the RNAGym collection of RNA variant scans (doi:10.1073/pnas.2313332121).

In the series the parent is B1. The experiment in a line: polymerase ribozyme fitness, log enrichment relative to wild type (log ratio); higher = more active; in vitro selection for triplet polymerase activity. The essentials: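 To select mutant libraries of each subunit of a heterodimeric triplet polymerase ribozyme, built by PCR and transcribed, each was annealed with a biotinylated primer, partner subunit and triplets, then incubated frozen at −7 °C. Extended constructs were gel-excised, captured on streptavidin beads and amplified by RT-PCR, in one round carried out in triplicate. Illumina sequencing of input and output libraries kept genotypes with ≥10 input reads and ≥1 read per output. Fitness is the base-2 logarithm of genotype enrichment relative to wild-type enrichment, from inverse-variance-weighted replicate averages.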
As for C3U C22A G36U G71C A84U C123A, the “polymerase ribozyme fitness (log ratio)” value is -5.28.
Next, U30C G44A C53G: -5.41; G47U G117A: -3.33.
Next, U78A A95U: -0.329; C114U A118U: -3.68.
With C13U G69A the figure was -2.03; with C4U C79A U92C, -3.5; with G51A C56U G63C A84U C99U A121U, -6.23.
Turning to A16U C53G G93C C123A, the “polymerase ribozyme fitness (log ratio)” value was -1.64.
U9G A27U A100U: the “polymerase ribozyme fitness (log ratio)” value is -3.
Next, U59A C72U A83C: -0.884.
Next, C34A G93A: -2.95; C13G G19U: -4.76; C82G C114A: -3.29.
With C64U C89U the figure was -0.57; with G51C U112C, -1.34; with C8G C89U U106A, 0.442.
For A46U C53A C73A, the “polymerase ribozyme fitness (log ratio)” value is -0.67.
Next, A6U A37C: -0.207.
Take A27C G61U G110A C123G: the “polymerase ribozyme fitness (log ratio)” value is -3.8.
With C82U U133A the figure was -0.572; with C13A U32C C49U G61A G77C U92C, -3.43.
Next, C8G C12A G63C: 0.17; U38G G57U C62A A91U C97A G117A G120C: -7.34; U9G U54A C56A G71A: -2.22.
With C70A U116A G120C the figure was -1.85.
As to C8U G45C G71A C85A, the “polymerase ribozyme fitness (log ratio)” value is -3.29.
Next, C49U G61U U78G: -0.458; C15A G71A: -2.63.
Next, C20U G71U: -1.29; C64U U112A: 0.346; A18C G61C C89G U116C C124A: -2.98.
Take C53G U112C C124U: the “polymerase ribozyme fitness (log ratio)” value was 1.27.
Next, A16U A37U C56G: -3.71; G48U G65U: -6.34; C12A G17U: -3.81.
Next, C53G G69A U78C C97U: -2.9.
With C11U G25U the figure was -5.82; with C40U C53U U78C U92A G93A A111C, -4.45.
Turning to A46U U54G G69U U78C G117U, the “polymerase ribozyme fitness (log ratio)” value was -4.42.
With C40U G45A the figure was -1.41; with G10C C70U, -1.63.
With G36U C53G G63C C86U U87A C101A U129G, the “polymerase ribozyme fitness (log ratio)” value is -5.54.
Next, G36U A37C C104U: -1.76.
Next, C8U C70U C79G C94G: -3.8.
Next, C20G C124G: -3.06; G69A C89A: -4.54; G69A C88U: -2.7.
As for A2U A6U C13U C20U G57A C82G, the “polymerase ribozyme fitness (log ratio)” value was -4.79.
Next, C70G C98U G117A: -5.6; G10C C34U: -5.43; C70A U81A: -2.88.
With C4U U32A G47A U112G, the “polymerase ribozyme fitness (log ratio)” value is -5.29.
Take G127C U130C: the “polymerase ribozyme fitness (log ratio)” value came to 0.0399.
With G48C U87G A95C the figure was -3; with A50U G69C, -1.7; with C8U C13G G69A C72A, -4.71.
For the variant C79A G93A, the “polymerase ribozyme fitness (log ratio)” value is -1.37.
Next, U9G: 0.36; C79G U131C: -1.28; A43U G45U: -1.71.
With U9G A27C C62U C70U C98U the figure was -6.21.
Next, A6U C56A A105G: -2.46.
In the case of C56G U96G G120U, the “polymerase ribozyme fitness (log ratio)” value is -1.41.
Next, G69A G71U: -4.27.
C13U G45U G52A A83C A103U C114U G127A: the “polymerase ribozyme fitness (log ratio)” value is -5.65.
With C56G C79G C124U, the “polymerase ribozyme fitness (log ratio)” value is -0.0923.
Next, G45C G113C G135U: -4.16; A43U A90C G110A A111G U132A: -0.915; A43C G63A U78C C104A G120C: -6.92.
With C40A A41U A50C C62A, the “polymerase ribozyme fitness (log ratio)” value is -5.7.
Regarding C62U U92G C99A C124U U131C, the “polymerase ribozyme fitness (log ratio)” value is -5.96.
With C12A G36A U54A G57C C97A the figure was -4.92; with C72A C123A U126G, -0.782; with C88U C102U, -1.5.
With C40A C70U the figure was -0.716; with U32C C49U, -0.805; with U7A U21C C70U G71C A90G, -2.31.
Next, A5C A29U A121G: -0.781.
As to C49G G110U, the “polymerase ribozyme fitness (log ratio)” value was -2.51.
With C12U A18G G19C A37U A118U A121G the figure was -1.65; with C11A C64U U106A A108U, -3.91; with C53U C72U A111U, -3.11.
For A18G G19A A43C C56U C70U G110A, the “polymerase ribozyme fitness (log ratio)” value is -4.41.
With G17C C20A A43C C123A U129G the figure was -3.55; with A27C G57C C85A G135U, -4.97; with C62U C85U U87A U92C C114U G117A, -6.6.
Next, A46U G61U A111G: -0.291; C11G G77A U92A U129C: -4.39.
For the variant G60U C101U G120A, the “polymerase ribozyme fitness (log ratio)” value is 0.583.
Next, G42C U87G: -1.08.
G10C G17U G63A: the “polymerase ribozyme fitness (log ratio)” value is -4.45.
Turning to C56U C101G A118C C124G, the “polymerase ribozyme fitness (log ratio)” value is -2.41.
Next, G61C C80G: -4.64.
As for A90U C101A, the “polymerase ribozyme fitness (log ratio)” value is -3.3.
G42A G61A A83U A121U: the “polymerase ribozyme fitness (log ratio)” value worked out at 0.412.
With U21C G58C the figure was -0.199; with A18C G47U, -4.12.
For G19U A43G G47U C76G G113A A119C U131A, the “polymerase ribozyme fitness (log ratio)” value was -4.34.
With C104G C124U the figure was -6.14; with C62A G93C, -2.37; with C13G A26G C70U C99U A119U, -4.5.
With G17C C22G G61U the figure was -6.24; with A68U C82U A91G C101G C123U G128U, -5.8.
For the variant A26C C40G U87C C101U C104U, the “polymerase ribozyme fitness (log ratio)” value is -5.71.
A46G C53G A111G: the “polymerase ribozyme fitness (log ratio)” value was found to be 1.36.
As to C70A C85U, the “polymerase ribozyme fitness (log ratio)” value is -2.32.
Next, C12U C49U G63U: -1.49.
As to G17A A18C C22U G35A C70A C79G A90G C99A C124G, the “polymerase ribozyme fitness (log ratio)” value was -5.86.
With A27C G57U C124G the figure was -1.48.
As for G45A G51C, the “polymerase ribozyme fitness (log ratio)” value is -5.06.
For U9G C15U U21C A83C, the “polymerase ribozyme fitness (log ratio)” value was -0.505.
Next, C13A U21C C62G: -2.82; A5C C97G U112A G122U: -5.96; C56G G63A G77U G120C: 0.612.
Next, G63C G120A: 0.11; U33A: -4.27; G45U C102A: -3.34.
Next, C8A G44U C123U: 0.898; C40A G44C C53A U55G G128A: -3.45.
Consider C13A C40U C49G C88A, for which the “polymerase ribozyme fitness (log ratio)” value was -3.8.
With U14C G69U A83U C114G C123G the figure was -1.4.
On to A29G G39U C85U C89U, for which the “polymerase ribozyme fitness (log ratio)” value was -4.23.
With C4G G63A the figure was -2.73.
With C12U G57A G113C the figure was -2.33; with C11U C22U U55C C56U A66U, -6.04; with U54G A108U, -5.9.
With C72G C86G the figure was -2.24; with C62U U87A U92A G120C, -3.58.
On to A111G U133G, for which the “polymerase ribozyme fitness (log ratio)” value is -0.431.
Take C70U C101G: the “polymerase ribozyme fitness (log ratio)” value was -2.81.
Next, G57C C104U: 0.227; G44C C73U U112G G120U G127C: -5.16; C4G U9G A43U: -1.6.
With G35C G39U C64U the figure was -7.51.
Next, C12A A16G U81C G120C: 0.152.
Regarding C115U G127A, the “polymerase ribozyme fitness (log ratio)” value is -3.15.
With G58C C101U the figure was -0.386.
With C4G G10U C20G G69A C114U the figure was -6.96; with G44C A121C, 0.904; with C12U C88U, 0.381.
With C20U G35C G60U the figure was -5.9; with C3U C53U C73U C88U, -0.301; with A43G A50G C101G C124A U129A, -3.82.
Consider U81C G128U, for which the “polymerase ribozyme fitness (log ratio)” value is -2.54.
For the variant G42A U55A U112G C115A, the “polymerase ribozyme fitness (log ratio)” value was -2.35.
Next, U9C G17U U54C C79A C98U C101A: -5.9; A41C C89A G93U C101U G113U: -6.26.
Next, C11U U116C: -1.29.
Turning to C8A C40A A43G G60A, the “polymerase ribozyme fitness (log ratio)” value was -3.37.
With U33C G42C C99G A105G G113C U116A C123G C124A U132C the figure was -7.71; with U14G A27U C94A, -5.54; with G17A U21A G36U A41U A84C C97U C124A, -6.13.
Regarding A29U G127C, the “polymerase ribozyme fitness (log ratio)” value is -3.29.
For the variant G45U C70A G120U G122C, the “polymerase ribozyme fitness (log ratio)” value was -2.72.
Next, G45A G61C: -1.97.
Next, A66U U116G: -3.73.
In the case of A26C C28G G52U C88U G120A, the “polymerase ribozyme fitness (log ratio)” value is -5.8.
Next, G39A G45A: -1.29.
Next, U9A C11U C40A U134G: -0.696.
Next, A6G C73A U112A G120U U130G: 0.876; U59C C86U G127C: -2.09; G45U G52A U96G: -2.98.
In the case of A43U C56A C73A U109A, the “polymerase ribozyme fitness (log ratio)” value was -5.95.
Next, C8U G36U G60C: -1.66; C72A C102A: -1.51; C40A G60A G61A U112A: -3.
